Measurements as given in US20260317420 (published 2026).

T1: mouse Claudin18.2 (mouse, UniProt P56857)
T1 chain: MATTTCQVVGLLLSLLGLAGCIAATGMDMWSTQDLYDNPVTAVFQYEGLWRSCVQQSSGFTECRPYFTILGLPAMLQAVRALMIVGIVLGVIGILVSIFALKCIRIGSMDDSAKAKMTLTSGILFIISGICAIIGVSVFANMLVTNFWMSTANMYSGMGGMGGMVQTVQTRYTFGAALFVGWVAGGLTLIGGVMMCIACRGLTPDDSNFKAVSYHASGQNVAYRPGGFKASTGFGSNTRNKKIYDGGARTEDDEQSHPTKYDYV

T2: rat Claudin18.1 (rat, UniProt Q5I0E5)
T2 chain: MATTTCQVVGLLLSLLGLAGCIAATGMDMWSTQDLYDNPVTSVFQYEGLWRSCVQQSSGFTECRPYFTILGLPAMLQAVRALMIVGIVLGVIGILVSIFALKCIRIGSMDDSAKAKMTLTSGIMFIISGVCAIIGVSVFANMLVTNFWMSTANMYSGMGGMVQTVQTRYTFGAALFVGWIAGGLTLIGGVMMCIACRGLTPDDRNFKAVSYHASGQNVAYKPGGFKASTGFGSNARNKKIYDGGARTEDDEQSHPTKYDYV

T3: mouse Claudin18.1 (mouse, UniProt P56857)
T3 chain: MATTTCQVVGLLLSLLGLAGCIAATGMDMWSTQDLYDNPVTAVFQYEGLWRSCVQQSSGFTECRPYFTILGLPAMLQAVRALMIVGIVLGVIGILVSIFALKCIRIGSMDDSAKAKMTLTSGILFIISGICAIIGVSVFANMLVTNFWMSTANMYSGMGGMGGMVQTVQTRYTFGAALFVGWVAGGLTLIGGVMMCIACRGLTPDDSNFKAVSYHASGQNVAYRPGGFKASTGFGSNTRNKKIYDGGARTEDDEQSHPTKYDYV

T4: human Claudin18.1 (human, UniProt P56856)
T4 chain: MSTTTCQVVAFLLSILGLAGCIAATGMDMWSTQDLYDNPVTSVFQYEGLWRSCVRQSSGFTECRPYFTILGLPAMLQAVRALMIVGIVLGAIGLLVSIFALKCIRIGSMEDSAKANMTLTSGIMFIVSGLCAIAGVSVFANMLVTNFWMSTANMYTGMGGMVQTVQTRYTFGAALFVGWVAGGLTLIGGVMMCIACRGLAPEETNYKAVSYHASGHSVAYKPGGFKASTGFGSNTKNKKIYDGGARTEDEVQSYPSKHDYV


Legend:
[1] = target: T5, human Claudin18.2 (human, UniProt P56856); experiment: BLI
[2] = target: T5, human Claudin18.2; experiment: BLI, bivalent
[3] = target: T1, mouse Claudin18.2; experiment: BLI
[4] = target: T2, rat Claudin18.1; experiment: FACS
[5] = target: T3, mouse Claudin18.1; experiment: FACS
[6] = target: T4, human Claudin18.1; experiment: ELISA

Row | Kd [1] [nM] | Kd [2] [nM] | Kd [3] [nM] | binding result [4] | binding result [5] | binding result [6] | Binder
1 | 3 | – | – | – | – | – | 5208H10 (SI-64CH5) (antibody, V domains shown) VH: QSVKESEGGLFKPTDTLTLTCTVSGFSLSTYAMSWVRQAPGNGLEWIGIIDAVGRTYYASWAKSRSTITRNTNLNTVTLKMTSLTAADTATYFCARWWDLWGQGTLVTVSS VL: AQVLTQTASSVSAAVGGTVTINCQSSQSVYDSNDLTWYQQKPGQSPKLLIYLASTLASGVPSRFKGSGSGTQFTLTISDLECDDSATYYCAAHYNSDIYTFGGGTEVEVK
2 | 1.59 | 5.31 | – | – | – | – | Zolbetuximab (SI-64C8) (antibody, V domains shown) VH: QVQLQQPGAELVRPGASVKLSCKASGYTFTSYWINWVKQRPGQGLEWIGNIYPSDSYTNYNQKFKDKATLTVDKSSSTAYMQLSSPTSEDSAVYYCTRSWRGNSFDYWGQGTTLTVSS VL: DIVMTQSPSSLTVTAGEKVTMSCKSSQSLLNSGNQKNYLTWYQQKPGQPPKLLIYWASTRESGVPDRFTGSGSGTDFTLTISSVQAEDLAVYYCQNDYSYPFTFGSGTKLEIKR
3 | 1.45 | 0.216 | 1.73 | no binding | no binding | no binding | 5103F3 BSM (SI-64M1) (antibody, V domains shown) VH: QVQLQESGGRLIKPGEPLRLSCKTSGIDLSGFAMGWVRQAPGKGLEYIGFIDSGGGAFYATWARGRFTISRTSTNTVYLQMNSLTAEDTAVYYCARHGGNTYYYAMDPWGPGTLVTVSS VL: ALRMTQSPSSLAATTGQRVTITCQASQSISNYLAWYQQKPGQPPKLLIYSASTLASGVPSRFKGSGSGTQFTLTISCVQCEDFATYYCQQVYSVTNIDNAFGGGTRVEIK
